For assay [1], the target named is T1, mouse acidic mammalian chitinase (AMCase), full length (mouse, UniProt Q91XA9 22-473).
T1 construct: Recombinant, secreted from HEK293 cells and purified by its His tag; Biotin labeled in the galectin ELISA; also called mAMCase; mouse AMCase
As to the kind of experiment: ELISA (data not shown). Background: In an ELISA, binding on a coated surface is turned into a signal by an enzyme label.

The target in assay [2] is T2, human AMCase C-terminally truncated, lacking the chitin binding domain (human, UniProt Q9BZP6 22-398, limits assumed).
T2 construct: Biotin labeled in the galectin ELISA; also called hAMCase TR
T2 sequence (Q9BZP6 22-398 limits assumed): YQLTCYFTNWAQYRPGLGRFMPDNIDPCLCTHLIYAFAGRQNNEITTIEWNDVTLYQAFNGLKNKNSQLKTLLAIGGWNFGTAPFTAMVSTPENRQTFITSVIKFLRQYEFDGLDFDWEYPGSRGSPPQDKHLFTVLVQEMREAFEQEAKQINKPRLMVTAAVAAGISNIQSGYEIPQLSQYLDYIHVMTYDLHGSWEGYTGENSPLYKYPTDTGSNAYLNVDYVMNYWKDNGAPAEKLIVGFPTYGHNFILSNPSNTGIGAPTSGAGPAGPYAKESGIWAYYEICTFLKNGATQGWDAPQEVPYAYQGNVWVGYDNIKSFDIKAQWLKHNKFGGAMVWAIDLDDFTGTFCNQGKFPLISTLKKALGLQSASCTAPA
Description: ELISA: galectin immobilised on the plate, serial dilutions of biotin-labelled C-terminally truncated human AMCase, A450. The procedure: C/CLP-Galectin Interaction ELISA: Galectin is immobilized on a microtiter plate in DPBS over night at 2-8° C. The plates are then washed with DPBS, 0.1% Tween 20 and blocked for 1 hour at room temperature. Serial dilutions of biotin labeled AMCase are added to each well and incubated for ˜1 hour at room temperature followed by HRP labeled streptavidin. Horseradish peroxydase activity is detected with TMB substrate (KPL, MD) and the reaction is quenched with 1% H2SO4. The absorbance is read at 450 nm.

T1 sequence (Q91XA9 other isoform, or with tags, fused parts or gaps limits assumed): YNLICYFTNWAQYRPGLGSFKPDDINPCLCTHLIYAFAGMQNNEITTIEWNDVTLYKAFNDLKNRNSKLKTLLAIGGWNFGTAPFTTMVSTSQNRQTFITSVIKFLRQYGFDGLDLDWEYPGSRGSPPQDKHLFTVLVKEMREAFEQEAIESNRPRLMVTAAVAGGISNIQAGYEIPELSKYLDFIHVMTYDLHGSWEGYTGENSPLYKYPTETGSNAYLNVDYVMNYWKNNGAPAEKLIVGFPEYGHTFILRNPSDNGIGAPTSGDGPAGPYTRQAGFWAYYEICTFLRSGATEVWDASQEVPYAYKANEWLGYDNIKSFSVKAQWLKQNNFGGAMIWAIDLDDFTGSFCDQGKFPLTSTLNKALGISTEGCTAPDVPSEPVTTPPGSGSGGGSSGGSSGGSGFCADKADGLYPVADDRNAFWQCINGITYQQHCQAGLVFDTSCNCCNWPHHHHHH

B1: mouse galectin-3 (other, UniProt P16110 2-264, looked up)
chain: ADSFSLNDALAGSGNPNPQGYPGAWGNQPGAGGYPGAAYPGAYPGQAPPGAYPGQAPPGAYPGQAPPSAYPGPTAPGAYPGPTAPGAYPGQPAPGAFPGQPGAPGAYPQCSGGYPAAGPYGVPAGPLTVPYDLPLPGGVMPRMLITIMGTVKPNANRIVLDFRRGNDVAFHFNPRFNENNRRVIVCNTKQDNNWGKEERQSAFPFESGKPFKIQVLVEADHFKVAVNDAHLLQYNHRMKNLREISQLGISGDITLTSANHAMI
notes: also called mGal-3
For the molecule B1, in assay [1], the binding result is listed as “binds”.

B2: galectin 8 (other, UniProt O00214 1-317, looked up)
chain: MMLSLNNLQNIIYNPVIPFVGTIPDQLDPGTLIVIRGHVPSDADRFQVDLQNGSSMKPRADVAFHFNPRFKRAGCIVCNTLINEKWGREEITYDTPFKREKSFEIVIMVLKDKFQVAVNGKHTLLYGHRIGPEKIDTLGIYGKVNIHSIGFSFSSDLQSTQASSLELTEISRENVPKSGTPQLRLPFAARLNTPMGPGRTVVVKGEVNANAKSFNVDLLAGKSKDIALHLNPRLNIKAFVRNSFLQESWGEEERNITSFPFSPGMYFEMIIYCDVREFKVAVNGVHSLEYKHRFKELSSIDTLEINGDIHLLEVRSW
notes: also called LGALS8
Take B2: the binding result in assay [2] was “no binding (tested: 10 ug/ml)”.

B3: mouse galectin-4 (other, UniProt Q8K419 1-326, looked up)
chain: MAYVPAPGYQPTYNPTLPYKRPIPGGLSVGMSVYIQGMAKENMRRFHVNFAVGQDDGADVAFHFNPRFDGWDKVVFNTMQSGQWGKEEKKKSMPFQKGKHFELVFMVMPEHYKVVVNGNSFYEYGHRLPVQMVTHLQVDGDLELQSINFLGGQPAAAPYPGAMTIPAYPAGSPGYNPPQMNTLPVMTGPPVFNPRVPYVGALQGGLTVRRTIIIKGYVLPTARNFVINFKVGSSGDIALHLNPRIGDSVVRNSFMNGSWGAEERKVAYNPFGPGQFFDLSIRCGMDRFKVFANGQHLFDFSHRFQAFQMVDTLEINGDITLSYVQI
notes: also called mGal-4
Regarding B3, the binding result in assay [1] was “binds”.

The record behind these values is patent US20070071746A1 (AstraZeneca / MedImmune, published 2007).
